Assay results published in patent US20240199761A1 (AstraZeneca / MedImmune, published 2024).
Numbering of substitutions follows the chain as printed.

B1: AB1630205 (mouse anti-PAD4) (antibody, V domains shown)
VH: EVQLVESGGGLVKPGGSRKLSCAASGFTFSDYGMHWVRQAPEKGLEWVAYISSGSSTIYYADTVKGRFTISRDNAKNTLFLQMTSLRSEDTAMYYCTRTYYDDAMDYWGQGTSVTVSS
VL: SIVMTQTPKFLLVSAGDRVTITCKASQSVSNDVVWYQQKPGQSPKLLISYASNRYTGVPDRFTGSGYGTDFTFTISSVQAEDLAVYFCQQDYSSPWTFGGGTKLEIK
notes: Biotinylated antibody captured on the chip
B2: 141LO0035 hIgG1 pgl-4 (Germlined) Clone 22 (Fab, V domains shown)
VH: not shown
VL: SYVLTQPPSVSVSPGQTASITCSGDKVGDKYVSWYQQKPGQSPVLVIYQDSQRPSGIPERFSGSNSGNTATLTISGTQAMDEADYYCQTWAPDVLLFGSGTKVTVL
notes: Anti-PAD2 lead; tested here as Fab
B3: 141LO0035 hIgG1 pgl-4 (Clone 22, anti-PAD2) Fab (Fab, V domains shown)
VH: not shown
VL: B2 VL
notes: Tested as Fab
B4: 141LO0030 hIgG1 pgl-4 (anti-PAD2) Fab (Fab, V domains shown)
VH: not shown
VL: B2 VL with A91Y, P92D, V94A, L96T
notes: Tested as Fab
B5: 141LO0030 hIgG1 pgl-4 (Germlined) (Fab, V domains shown)
VH: not shown
VL: B2 VL with A91Y, P92D, V94A, L96T
notes: Anti-PAD2; tested as Fab
B6: 141LO0039 hIgG1 pgl-4 (anti-PAD2) Fab (Fab, V domains shown)
VH: not shown
VL: B2 VL with Q88H, W90Y, P92E, V94E, L95Y, L96V
notes: Tested as Fab
B7: 141LO0035 hIgG1 ngl-2 (anti-PAD2) Fab (Fab, V domains shown)
VH: not shown
VL: B2 VL with S42A, I47M, F61I, M80V, D84E
notes: Tested as Fab
B8: 141LO0039 hIgG1 pgl-4 (Germlined) (Fab, V domains shown)
VH: not shown
VL: B2 VL with Q88H, W90Y, P92E, V94E, L95Y, L96V
notes: Anti-PAD2; tested as Fab
B9: PAD40141 hIgG1 ngl-2 (Parent) (Fab, V domains shown)
VH: not shown
VL: SYVLTQPPSVSVSPGQTASITCSGDKVGDKYVSWYQQKPGQAPVLVMYQDSQRPSGIPERISGSNSGNTATLTISGTQAVDEAEYYCQTWDSNEYVFGSGTKVTVL
notes: Anti-PAD2; tested as Fab
B10: PAD40141 hIgG1 ngl-2 (anti-PAD2, parent) Fab (Fab, V domains shown)
VH: not shown
VL: B9 VL
notes: Tested as Fab
B11: 141LO0030 hIgG1 ngl-2 (anti-PAD2) Fab (Fab, V domains shown)
VH: not shown
VL: B9 VL with D91Y, S92D, N93D, E94A, Y95L, V96T
notes: Tested as Fab
B12: 141LO0002 hIgG1 pgl-3 (Germlined) (Fab, V domains shown)
VH: not shown
VL: B2 VL with Q88E, T89V, W90G, A91V, P92D, D93Y, V94E, L95Y, L96V
notes: Anti-PAD2; tested as Fab
B13: 141LO0002 hIgG1 pgl-4 (anti-PAD2) Fab (Fab, V domains shown)
VH: not shown
VL: B2 VL with Q88E, T89V, W90G, A91V, P92D, D93Y, V94E, L95Y, L96V
B14: 141LO0035 hIgG1 ngl-2 (Fab, V domains shown)
VH: not shown
VL: B2 VL with S42A, I47M, F61I, M80V, D84E
notes: Anti-PAD2; tested as Fab
B15: 141LO0030 hIgG1 ngl-2 (Fab, V domains shown)
VH: not shown
VL: B9 VL with D91Y, S92D, N93D, E94A, Y95L, V96T
notes: Anti-PAD2; tested as Fab
B16: 141LO0039 hIgG1 ngl-2 (anti-PAD2) Fab (Fab, V domains shown)
VH: not shown
VL: B9 VL with Q88H, W90Y, D91A, S92E, N93D
notes: Tested as Fab
B17: 141LO0002 hIgG1 ngl-2 (Fab, V domains shown)
VH: not shown
VL: B9 VL with Q88E, T89V, W90G, D91V, S92D, N93Y
B18: 141LO0055 hIgG1 ngl-2 (anti-PAD2) Fab (Fab, V domains shown)
VH: not shown
VL: B9 VL with T89S, W90E, D91N, S92A, N93V
notes: Tested as Fab
B19: 141LO0039 hIgG1 ngl-2 (Fab, V domains shown)
VH: not shown
VL: B9 VL with Q88H, W90Y, D91A, S92E, N93D
notes: Anti-PAD2; tested as Fab
B20: 141LO0002 hIgG1 pgl-4 (Germlined) (Fab, V domains shown)
VH: not shown
VL: B2 VL with Q88E, T89V, W90G, A91V, P92D, D93Y, V94E, L95Y, L96V
B21: 141LO0055 hIgG1 ngl-2 (Fab, V domains shown)
VH: not shown
VL: B9 VL with T89S, W90E, D91N, S92A, N93V
notes: Anti-PAD2; tested as Fab
B22: 141LO0002 hIgG1 ngl-2 (anti-PAD2) Fab (Fab, V domains shown)
VH: not shown
VL: B9 VL with Q88E, T89V, W90G, D91V, S92D, N93Y
B23: 141LO0002 hIgG1 pgl-3 (anti-PAD2) Fab (Fab, V domains shown)
VH: not shown
VL: B2 VL with Q88E, T89V, W90G, A91V, P92D, D93Y, V94E, L95Y, L96V
notes: Tested as Fab
B24: AB1630204 (mouse anti-PAD4) (antibody, V domains shown)
VH: QVQLQQPGAELVKPGASVKLSCKASGYTFTSYWMHWVKQRPGRGPEWIGRIDPNSGGTKYNEKFKSKAILTVDKPSSTAYMQLSSLTSEDSAVYYCAREGGDYWYFDVWGAGTTVTVSS
VL: QIVLTQSPALMSASPGEKVTMTCSANSGLRYMYWYQQKPRSSPKPWIYLTSNLASGVPARFSGSGSGTSYSLTISSMEAEDAATYYCQQWSSIPPTFGAGTKLELK
notes: as for B1
B25: Clone 07 (Bis3, TM; PAD4 Fab, PAD2 scFv) (bispecific antibody, human IgG1, lambda)
heavy: not shown
light: QSALTQPRSVSGSPGQSVTISCTGTSGDVGRYSHVSWYQQHPGKAPKLIIYNVYERPSGVPDRFSGSKSGNTASLTISGLQAEDEADYYCSSHSRSSTPVLFGGGTKLTVLGQPKAAPSVTLFPPSSEELQANKATLVCLISDFYPGAVTVAWKADSSPVKAGVETTTPSKQSNNKYAASSYLSLTPEQWKSHRSYSCQVTHEGSTVEKTVAPTECS
B26: Clone 09 (Bis3, TM-YTE; Fab anti-PAD4, scFv anti-PAD2) (bispecific antibody, human IgG1, lambda)
heavy: not shown
light: B25 light
notes: Bivalent bispecific IgG-HC-scFv; also called PAD240009
B27: PAD40175 hIgG1 ngl-2 (Fab, V domains shown)
VH: not shown
VL: QAVLTQPSSVSVAPGKTATITCGGDNIGSKSVHWYQQKPGQAPLLVIFYDTDRPSGVPERFSGSNSGNTATLTISRVEAGDEADYYCQVWDSNGDHYVFGTGTKLTVL
notes: Anti-PAD2; tested as Fab
B28: PAD40175 hIgG1 ngl-2 (anti-PAD2) Fab (Fab, V domains shown)
VH: not shown
VL: B27 VL
notes: Tested as Fab
B29: Clone 08 (Bis3, TM; PAD2 Fab, PAD4 scFv) (bispecific antibody, human IgG1, lambda)
heavy: not shown
light: SYVLTQPPSVSVSPGQTASITCSGDKVGDKYVSWYQQKPGQSPVLVIYQDSQRPSGIPERFSGSNSGNTATLTISGTQAMDEADYYCQTWAPDVLLFGSGTKVTVLGQPKAAPSVTLFPPSSEELQANKATLVCLISDFYPGAVTVAWKADSSPVKAGVETTTPSKQSNNKYAASSYLSLTPEQWKSHRSYSCQVTHEGSTVEKTVAPTECS
B30: Clone 10 (Bis3, TM-YTE; Fab anti-PAD2, scFv anti-PAD4) (bispecific antibody, human IgG1, lambda)
heavy: not shown
light: B29 light
notes: Bivalent bispecific IgG-HC-scFv; also called PAD240010

Assays:
recombinant mouse PAD4 = target: T1, recombinant mouse PAD4 (mouse, UniProt Q9Z183 1-666); test: SPR; biotinylated antibody captured on C1-streptavidin, PAD4 flowed over
T1 construct: Recombinant

[1] = target: T2, recombinant human PAD2 (biotinylated) (human, UniProt Q9Y2J8 1-665, enzymatically biotinylated on an Avi-tag); test: SPR (Biacore), biotinylated PAD2 on CM5/C1-streptavidin, Fab flowed over; average
T2 construct: not shown: Avi-tag (and any other tags); said to be at the C-terminus in this earlier assay

[2] = target: T3, recombinant mouse PAD2 (biotinylated) (mouse, UniProt Q08642 1-673, enzymatically biotinylated on an Avi-tag); test: as above
T3 construct: not shown: Avi-tag (and any other tags); said to be at the C-terminus in this earlier assay

recombinant human PAD2 [3] = target: T4, recombinant human PAD2 (human, UniProt Q9Y2J8 1-665, enzymatically biotinylated on an Avi-tag); test: SPR (Biacore 8K), biotinylated PAD2 on streptavidin chip, Fab flowed over
T4 construct: Recombinant, biotinylated on an Avi-tag and captured on streptavidin; also called peptidyl arginine deiminase 2

recombinant mouse PAD2 = target: T5, recombinant mouse PAD2 (mouse, UniProt Q08642 1-673, enzymatically biotinylated on an Avi-tag); test: as above
T5 construct: Recombinant, biotinylated on an Avi-tag

recombinant human PAD2 [4] = target: recombinant human PAD2 (human, UniProt Q9Y2J8 1-665, enzymatically biotinylated on an Avi-tag (when captured on the SPR chip)); test: cell-based or functional assay
huFcRn = target: T6, huFcRn (human, UniProt P55899 24-297; P61769 21-119, limits assumed); test: huFcRn affinity chromatography, pH gradient elution
T6 construct: also called human neonatal Fc receptor

Binder	Kd [1] [nM]	koff [1] [s⁻¹]	kon [1] [M⁻¹ s⁻¹]	Kd (recombinant human PAD2 [3]) [nM]	other results
B1	–	–	–	–	Kd (recombinant mouse PAD4): 0.094 nM; koff (recombinant mouse PAD4): 0.000106 s⁻¹; kon (recombinant mouse PAD4): 1.14e+06 M⁻¹ s⁻¹
B2	0.218	0.000221	1.01e+06	–	Kd [2]: 0.794 nM; koff [2]: 0.000766 s⁻¹; kon [2]: 971000 M⁻¹ s⁻¹
B3	–	–	–	0.218	Kd (recombinant mouse PAD2): 0.794 nM
B4	–	–	–	2.14	Kd (recombinant mouse PAD2): 13.2 nM
B5	2.14	0.00101	474000	–	Kd [2]: 13.2 nM; koff [2]: 0.00484 s⁻¹; kon [2]: 378000 M⁻¹ s⁻¹
B6	–	–	–	3.9	Kd (recombinant mouse PAD2): 17.8 nM
B7	–	–	–	0.185	Kd (recombinant mouse PAD2): 0.571 nM
B8	3.9	0.00245	629000	–	Kd [2]: 17.8 nM; koff [2]: 0.0125 s⁻¹; kon [2]: 722000 M⁻¹ s⁻¹
B9	261	0.111	445000	–	–
B10	–	–	–	261	–
B11	–	–	–	0.949	–
B12	3.31	0.0035	1.07e+06	–	Kd [2]: 33.8 nM; koff [2]: 0.026 s⁻¹; kon [2]: 777000 M⁻¹ s⁻¹
B13	–	–	–	2.78	Kd (recombinant mouse PAD2): 38.5 nM
B14	0.185	0.000192	1.04e+06	–	Kd [2]: 0.571 nM; koff [2]: 0.000646 s⁻¹; kon [2]: 1.14e+06 M⁻¹ s⁻¹
B15	0.949	0.000613	647000	–	–
B16	–	–	–	1.87	–
B17	3.78	0.00328	880000	–	–
B18	–	–	–	0.364	–
B19	1.87	0.00157	840000	–	–
B20	2.78	0.00314	1.13e+06	–	Kd [2]: 38.5 nM; koff [2]: 0.0256 s⁻¹; kon [2]: 692000 M⁻¹ s⁻¹
B21	0.364	0.000675	1.85e+06	–	–
B22	–	–	–	3.78	–
B23	–	–	–	3.31	Kd (recombinant mouse PAD2): 33.8 nM
B24	–	–	–	–	Kd (recombinant mouse PAD4): 1.31 nM; koff (recombinant mouse PAD4): 0.000314 s⁻¹; kon (recombinant mouse PAD4): 239000 M⁻¹ s⁻¹
B25	–	–	–	–	potency (IC50), Histone-H3 citrullination ELISA, recombinant PAD2 (recombinant human PAD2 [4]): < 1 nM
B26	–	–	–	–	HPLC retention (huFcRn): 23.3 min; Relative retention (huFcRn): 0.828
B27	6.73	0.000629	93000	–	Kd [2]: 2.35 nM; koff [2]: 0.000288 s⁻¹; kon [2]: 123000 M⁻¹ s⁻¹
B28	–	–	–	6.73	Kd (recombinant mouse PAD2): 2.35 nM
B29	–	–	–	–	potency (IC50), Histone-H3 citrullination ELISA, recombinant PAD2 (recombinant human PAD2 [4]): < 1 nM
B30	–	–	–	–	HPLC retention (huFcRn): 22.8 min; Relative retention (huFcRn): 0.753
